{"source": "paper PMC7116854", "about": "(Nature, 2020)", "assay_in_all_cases": "SPR", "key": {"[1]": {"target": "T1, LILRB1 D1D4 (complete extracellular domain of LILRB1) (human, UniProt Q8NHL6 24-417)", "T1 sequence (Q8NHL6 24-417)": "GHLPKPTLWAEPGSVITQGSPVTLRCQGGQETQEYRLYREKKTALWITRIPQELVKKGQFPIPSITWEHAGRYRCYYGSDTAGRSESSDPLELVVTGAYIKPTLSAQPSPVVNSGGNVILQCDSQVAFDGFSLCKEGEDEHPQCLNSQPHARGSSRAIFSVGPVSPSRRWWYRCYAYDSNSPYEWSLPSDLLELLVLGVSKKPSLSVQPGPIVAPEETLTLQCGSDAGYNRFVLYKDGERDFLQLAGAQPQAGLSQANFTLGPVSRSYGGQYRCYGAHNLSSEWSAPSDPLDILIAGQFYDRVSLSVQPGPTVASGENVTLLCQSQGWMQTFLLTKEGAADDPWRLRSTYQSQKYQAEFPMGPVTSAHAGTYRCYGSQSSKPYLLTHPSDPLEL"}, "[2]": {"target": "T1, LILRB1 D1D4 (complete extracellular …)", "remark": "listed apart in the source"}, "LILRB1 D1D2 [3]": {"target": "T2, LILRB1 D1D2 (human, UniProt Q8NHL6 24-221)", "T2 sequence (Q8NHL6 24-221)": "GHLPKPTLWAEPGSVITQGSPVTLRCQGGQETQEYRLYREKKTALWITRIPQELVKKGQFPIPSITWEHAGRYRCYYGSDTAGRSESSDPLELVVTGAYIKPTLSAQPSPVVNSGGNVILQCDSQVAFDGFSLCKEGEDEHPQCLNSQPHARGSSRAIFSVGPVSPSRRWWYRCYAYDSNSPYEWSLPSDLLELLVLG"}, "LILRB1 D1D2 [4]": {"target": "T2, LILRB1 D1D2", "remark": "listed apart in the source"}}, "note": "Where two headings read alike, the source gives them in different places."}
{"binder": "RIFIN PF3D7_1254800 variable region (residues 165-274) (domain or fragment) NYETINAFIAKTIEELEGIPGITKLFGAKISQFVTPAVFRKPMSLVETILSEKKKLCLCAANKNELLCRGMNPNVPETLPKKIEVAVNEVLSSVNDTWATATTPTTFFTN", "values": [{"measurement": "Kd", "setting": "[1]", "value": "570 ± 130", "unit": "nM"}, {"measurement": "Kd", "setting": "[2]", "value": 1130, "unit": "nM"}, {"measurement": "koff", "setting": "[2]", "value": 0.297, "unit": "s⁻¹"}, {"measurement": "kon", "setting": "[2]", "value": 263000, "unit": "M⁻¹ s⁻¹"}]}
{"binder": "RIFIN PF3D7_1254800 variable region C223S (165-261) (domain or fragment) NYETINAFIAKTIEELEGIPGITKLFGAKISQFVTPAVFRKPMSLVETILSEKKKLCLSAANKNELLCRGMNPNVPETLPKKIEVAVNEVLSSVNDT", "values": [{"measurement": "Kd", "setting": "[1]", "value": "700 ± 5", "unit": "nM"}, {"measurement": "Kd", "setting": "LILRB1 D1D2 [3]", "value": "1100 ± 50", "unit": "nM"}, {"measurement": "Kd", "setting": "[2]", "value": 1040, "unit": "nM"}, {"measurement": "koff", "setting": "[2]", "value": 0.299, "unit": "s⁻¹"}, {"measurement": "kon", "setting": "[2]", "value": 288000, "unit": "M⁻¹ s⁻¹"}, {"measurement": "Kd", "setting": "LILRB1 D1D2 [4]", "value": 1330, "unit": "nM"}, {"measurement": "koff", "setting": "LILRB1 D1D2 [4]", "value": 0.579, "unit": "s⁻¹"}, {"measurement": "kon", "setting": "LILRB1 D1D2 [4]", "value": 437000, "unit": "M⁻¹ s⁻¹"}]}
{"binder": "RIFIN PF3D7_0100400 variable region (165-329) (domain or fragment) VWKTTEIAAAMELAKQAGAAAGLKAGHLAGTNAVIEQLRTLGIYFVGDKLLETIIDVTNYMNVSFIYDKVYSHYTTSCTPSLVNDQLVGTFNTSDPFCNLVHSNLQGSFYRSSAQTIIYEKVEEAVAGAEQAATTKTAVMTPIYTTEFTAKNIAEVEAATTSYYT", "values": [{"measurement": "Kd", "setting": "[1]", "value": "4400 ± 3200", "unit": "nM"}, {"measurement": "Kd", "setting": "[2]", "value": 14500, "unit": "nM"}, {"measurement": "koff", "setting": "[2]", "value": 0.0592, "unit": "s⁻¹"}, {"measurement": "kon", "setting": "[2]", "value": 4100, "unit": "M⁻¹ s⁻¹"}]}
